According to article PMC8888484, “Ubr1-induced selective endophagy/autophagy protects against the endosomal and Ca^2+-induced proteostasis disease stress” (Cellular and Molecular Life Sciences: CMLS, 2022):

T1: HA-MLC1-S280L-Bir* (human (by the printed GeneID 23209; the …, UniProt Q15049 1-377, S280L)
T1 construct: MLC1, GeneID 23209, disease-causing variant S280L, as a chimera with Bir*; also called SL-b
T1 sequence (looked up): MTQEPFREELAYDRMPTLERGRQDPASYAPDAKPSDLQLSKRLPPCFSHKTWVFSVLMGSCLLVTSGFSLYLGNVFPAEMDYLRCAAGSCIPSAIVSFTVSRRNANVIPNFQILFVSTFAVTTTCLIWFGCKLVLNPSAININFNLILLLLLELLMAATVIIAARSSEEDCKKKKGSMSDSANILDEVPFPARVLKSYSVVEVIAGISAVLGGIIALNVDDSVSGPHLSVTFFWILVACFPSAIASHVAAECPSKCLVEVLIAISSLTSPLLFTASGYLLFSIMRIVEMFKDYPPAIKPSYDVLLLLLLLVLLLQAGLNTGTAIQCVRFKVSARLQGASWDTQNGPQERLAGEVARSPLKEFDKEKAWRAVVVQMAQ


What was measured:
[1] = target: mutants (MLC1 mutants of Fig. 3A); test: co-IP; cell surface immunoprecipitation (cs-IP): anti-GlialCAM Ab bound to live HeLa cells 45 min on ice, unbound Ab washed off, lysis (0.4% NP-40 in co-IP assays), MLC1/GlialCAM complex precipitated, Western blot; signals normalised to precipitated MLC1; for Fig. 7G cells with siUbr1 or siNT and Flag-Ubr1-wt or -CI
HA-MLC1-S280L-Bir* = target: T1, HA-MLC1-S280L-Bir*; test: proximity labelling; proximity biotinylation with MLC1-Bir* chimera as bait, 50 µM biotin, cs-IP with anti-GlialCAM Ab, biotinylated proteins recovered on streptavidin/neutravidin beads, Western blot for Ubr1; normalised for the PM amount of MLC1; settings: partners not purified

Sequence of CHIP (C-terminus of Hsc70-interacting protein) (Q9UNE7 whole entry): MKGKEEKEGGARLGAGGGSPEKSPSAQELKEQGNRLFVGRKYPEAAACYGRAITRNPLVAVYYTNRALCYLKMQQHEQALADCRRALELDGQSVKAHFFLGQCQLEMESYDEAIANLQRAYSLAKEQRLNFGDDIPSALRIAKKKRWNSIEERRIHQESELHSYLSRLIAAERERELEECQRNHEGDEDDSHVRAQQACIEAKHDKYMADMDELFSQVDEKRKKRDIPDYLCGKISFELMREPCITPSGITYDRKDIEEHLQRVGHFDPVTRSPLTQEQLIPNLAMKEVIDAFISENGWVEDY

Row | fold association against MLC1-wt [1] [fold] | fold biotinylation against MLC1-wt (HA-MLC1-S280L-Bir*) [fold] | Molecule
1 | 2 to 5 |  | CHIP (C-terminus of Hsc70-interacting protein) (from UniProt Q9UNE7 1-303)
2 |  | ~8 | endogenous Ubr1 (enzyme, UniProt Q8IWV7 1-1749, looked up, biotinylated in cells by MLC1-Bir*, Ubr1, endogenous, detected with anti-Ubr1 (Abcam)) MADEEAGGTERMEISAELPQTPQRLASWWDQQVDFYTAFLHHLAQLVPEIYFAEMDPDLEKQEESVQMSIFTPLEWYLFGEDPDICLEKLKHSGAFQLCGRVFKSGETTYSCRDCAIDPTCVLCMDCFQDSVHKNHRYKMHTSTGGGFCDCGDTEAWKTGPFCVNHEPGRAGTIKENSRCPLNEEVIVQARKIFPSVIKYVVEMTIWEEEKELPPELQIREKNERYYCVLFNDEHHSYDHVIYSLQRALDCELAEAQLHTTAIDKEGRRAVKAGAYAACQEAKEDIKSHSENVSQHPLHVEVLHSEIMAHQKFALRLGSWMNKIMSYSSDFRQIFCQACLREEPDSENPCLISRLMLWDAKLYKGARKILHELIFSSFFMEMEYKKLFAMEFVKYYKQLQKEYISDDHDRSISITALSVQMFTVPTLARHLIEEQNVISVITETLLEVLPEYLDRNNKFNFQGYSQDKLGRVYAVICDLKYILISKPTIWTERLRMQFLEGFRSFLKILTCMQGMEEIRRQVGQHIEVDPDWEAAIAIQMQLKNILLMFQEWCACDEELLLVAYKECHKAVMRCSTSFISSSKTVVQSCGHSLETKSYRVSEDLVSIHLPLSRTLAGLHVRLSRLGAVSRLHEFVSFEDFQVEVLVEYPLRCLVLVAQVVAEMWRRNGLSLISQVFYYQDVKCREEMYDKDIIMLQIGASLMDPNKFLLLVLQRYELAEAFNKTISTKDQDLIKQYNTLIEEMLQVLIYIVGERYVPGVGNVTKEEVTMREIIHLLCIEPMPHSAIAKNLPENENNETGLENVINKVATFKKPGVSGHGVYELKDESLKDFNMYFYHYSKTQHSKAEHMQKKRRKQENKDEALPPPPPPEFCPAFSKVINLLNCDIMMYILRTVFERAIDTDSNLWTEGMLQMAFHILALGLLEEKQQLQKAPEEEVTFDFYHKASRLGSSAMNIQMLLEKLKGIPQLEGQKDMITWILQMFDTVKRLREKSCLIVATTSGSESIKNDEITHDKEKAERKRKAEAARLHRQKIMAQMSALQKNFIETHKLMYDNTSEMPGKEDSIMEEESTPAVSDYSRIALGPKRGPSVTEKEVLTCILCQEEQEVKIENNAMVLSACVQKSTALTQHRGKPIELSGEALDPLFMDPDLAYGTYTGSCGHVMHAVCWQKYFEAVQLSSQQRIHVDLFDLESGEYLCPLCKSLCNTVIPIIPLQPQKINSENADALAQLLTLARWIQTVLARISGYNIRHAKGENPIPIFFNQGMGDSTLEFHSILSFGVESSIKYSNSIKEMVILFATTIYRIGLKVPPDERDPRVPMLTWSTCAFTIQAIENLLGDEGKPLFGALQNRQHNGLKALMQFAVAQRITCPQVLIQKHLVRLLSVVLPNIKSEDTPCLLSIDLFHVLVGAVLAFPSLYWDDPVDLQPSSVSSSYNHLYLFHLITMAHMLQILLTVDTGLPLAQVQEDSEEAHSASSFFAEISQYTSGSIGCDIPGWYLWVSLKNGITPYLRCAALFFHYLLGVTPPEELHTNSAEGEYSALCSYLSLPTNLFLLFQEYWDTVRPLLQRWCADPALLNCLKQKNTVVRYPRKRNSLIELPDDYSCLLNQASHFRCPRSADDERKHPVLCLFCGAILCSQNICCQEIVNGEEVGACIFHALHCGAGVCIFLKIRECRVVLVEGKARGCAYPAPYLDEYGETDPGLKRGNPLHLSRERYRKLHLVWQQHCIIEEIARSQETNQMLFGFNWQLL
